This test addresses T1, purified CD45 protein N257D (Homo sapiens, UniProt P08575 225-394, limits assumed).
T1 construct: Purified CD45 variant of the biosensor assay
T1 chain: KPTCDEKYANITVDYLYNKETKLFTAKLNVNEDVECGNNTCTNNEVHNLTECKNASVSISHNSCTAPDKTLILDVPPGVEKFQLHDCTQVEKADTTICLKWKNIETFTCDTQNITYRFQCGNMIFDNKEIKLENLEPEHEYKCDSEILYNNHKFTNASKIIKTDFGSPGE
Description: biosensor; 100 nM mAb030-9 captured with Anti-Human IgG Fc Capture (AHC), 300 nM purified CD45 protein. The procedure:
300 nM of purified CD45 protein was contacted with the immobilized antibody. At 300 s the biosensor was placed in buffer without purified CD45 protein.

Some results are limits rather than exact numbers.

B1: mAb U139AGL030-9 (mAb030-9) (antibody, mouse IgG1, kappa, V domains shown)
VH: EVKLLESGGGLVQPGGSLKLSCAASGFDFSRYWMSWVRQAPGKGLEWIGEINPTSSTINFTPSLKDKVFISRDNAKNTLYLQMSKVRSEDTALYYCARGNYYRYGDAMDYWGQGTSVTVSS
VL: DIALTQSPASLAVSLGQRATISCRASKSVSTSGYSYLHWYQQKPGQPPKLLIYLASNLESGVPARFSGSGSGTDFTLNIHPVEEEDAATYYCQHSRELPFTFGSGTKLEIKR
notes: In the biosensor assay the antibody was captured with Anti-Human IgG Fc Capture (AHC); also called mAb30-9; mAb039-9
On to B1, for which the response was less than 0.05 nm.

The record behind these values is patent US20260130997A1 (BEAM THERAPEUTICS, published 2026).
